Assay results from paper PMC6797610, “Functional Analysis of 3-Dehydroquinate Dehydratase/Shikimate Dehydrogenases Involved in Shikimate Pathway in Camellia sinensis” (Frontiers in Plant Science, 2019).

Legend:
[1] = target: CsDQD/SDHb (Camellia sinensis, UniProt A0A3G3BK08, G296T/D398N/I399R/D400T, form not given); assay: HPLC product quantification; type: biochemical; conditions: MTCsDQD/SDHb; SA oxidation with NADP+; residue numbers after AtDQD/SDH
[2] = target: T1, CsSDHa (Camellia sinensis, UniProt A0A3G3BK14); assay: HPLC product quantification; type: biochemical; conditions: 1 mM each, BTP-HCl pH 7.5, 30°C
T1 construct: SDH unit only of CsDQD/SDHa (Ile-328 to Gly-588 in AtSDH numbering), MBP fusion from pMAL-c2x, E. coli

[3] = target: CsDQD/SDHb (Camellia sinensis, UniProt A0A3G3BK08); assay: HPLC product quantification; type: biochemical; conditions: SA oxidation, 1 mM SA, 1 mM NADP+; BTP-HCl pH 7.5, 30°C, 30 min; very low activity, Km not determinable
[4] = substrate: NC(=O)C1=CN([C@@H]2O[C@H](COP(=O)(O)OP(=O)(O)OC[C@H]3O[C@@H](n4cnc5c(N)ncnc54)[C@H](OP(=O)(O)O)[C@@H]3O)[C@@H](O)[C@H]2O)C=CC1; assay: HPLC product assay, Michaelis-Menten; type: biochemical, Camellia sinensis; conditions: 3-DHS reduction to SA, co-substrate 3-DHS 1.5 mM, BTP-HCl pH 8.5, 30°C, 3 min
Description: (§1) HPLC product assay, Michaelis-Menten on CsDQD/SDHa

[5] = substrate: NC(=O)c1ccc[n+]([C@@H]2O[C@H](COP(=O)(O)OP(=O)(O)OC[C@H]3O[C@@H](n4cnc5c(N)ncnc54)[C@H](OP(=O)(O)O)[C@@H]3O)[C@@H](O)[C@H]2O)c1; assay: HPLC product assay, Michaelis-Menten; type: biochemical, Camellia sinensis; conditions: SA oxidation to 3-DHS, co-substrate SA 1.5 mM, BTP-HCl pH 8.5, 30°C, 3 min
Description: as §1

[6] = substrate: O=C(O)C1=CC(=O)[C@@H](O)[C@H](O)C1; assay: HPLC product assay, Michaelis-Menten; type: biochemical, Camellia sinensis; conditions: 3-DHS reduction to SA, co-substrate NADPH (per table; b27 pairs the cofactors the other way round), 1.5 mM, BTP-HCl pH 8.5, 30°C, 3 min
Description: as §1

[7] = substrate: O=C(O)C1=C[C@@H](O)[C@@H](O)[C@H](O)C1; assay: HPLC product assay, Michaelis-Menten; type: biochemical, Camellia sinensis; conditions: SA oxidation to 3-DHS, co-substrate NADP+ (per table; b27 pairs the cofactors the other way round), 1.5 mM, BTP-HCl pH 8.5, 30°C, 3 min
Description: as §1

[8] = substrate: NC(=O)C1=CN([C@@H]2O[C@H](COP(=O)(O)OP(=O)(O)OC[C@H]3O[C@@H](n4cnc5c(N)ncnc54)[C@H](OP(=O)(O)O)[C@@H]3O)[C@@H](O)[C@H]2O)C=CC1; assay: HPLC product assay, Michaelis-Menten; type: biochemical, Camellia sinensis; conditions: 3-DHS reduction to SA, co-substrate 3-DHS 1.5 mM, BTP-HCl pH 8.5, 30°C, 3 min; remark: listed apart in the source
Description: (§2) HPLC product assay, Michaelis-Menten on CsDQD/SDHc

[9] = substrate: NC(=O)c1ccc[n+]([C@@H]2O[C@H](COP(=O)(O)OP(=O)(O)OC[C@H]3O[C@@H](n4cnc5c(N)ncnc54)[C@H](OP(=O)(O)O)[C@@H]3O)[C@@H](O)[C@H]2O)c1; assay: HPLC product assay, Michaelis-Menten; type: biochemical, Camellia sinensis; conditions: SA oxidation to 3-DHS, co-substrate SA 1.5 mM, BTP-HCl pH 8.5, 30°C, 3 min; remark: listed apart in the source
Description: as §2

[10] = substrate: O=C(O)C1=CC(=O)[C@@H](O)[C@H](O)C1; assay: HPLC product assay, Michaelis-Menten; type: biochemical, Camellia sinensis; conditions: 3-DHS reduction to SA, co-substrate NADPH 1.5 mM, BTP-HCl pH 8.5, 30°C, 3 min
Description: as §2

[11] = substrate: O=C(O)C1=C[C@@H](O)[C@@H](O)[C@H](O)C1; assay: HPLC product assay, Michaelis-Menten; type: biochemical, Camellia sinensis; conditions: SA oxidation to 3-DHS, co-substrate NADP+ 1.5 mM, BTP-HCl pH 8.5, 30°C, 3 min
Description: as §2

[12] = substrate: NC(=O)C1=CN([C@@H]2O[C@H](COP(=O)(O)OP(=O)(O)OC[C@H]3O[C@@H](n4cnc5c(N)ncnc54)[C@H](OP(=O)(O)O)[C@@H]3O)[C@@H](O)[C@H]2O)C=CC1; assay: HPLC product assay, Michaelis-Menten; type: biochemical, Camellia sinensis; conditions: 3-DHS reduction to SA, co-substrate 3-DHS 1.5 mM, BTP-HCl pH 8.5, 30°C, 3 min; remark: listed apart in the source
Description: (§3) HPLC product assay, Michaelis-Menten on CsDQD/SDHd

[13] = substrate: NC(=O)c1ccc[n+]([C@@H]2O[C@H](COP(=O)(O)OP(=O)(O)OC[C@H]3O[C@@H](n4cnc5c(N)ncnc54)[C@H](OP(=O)(O)O)[C@@H]3O)[C@@H](O)[C@H]2O)c1; assay: HPLC product assay, Michaelis-Menten; type: biochemical, Camellia sinensis; conditions: SA oxidation to 3-DHS, co-substrate SA 1.5 mM, BTP-HCl pH 8.5, 30°C, 3 min; remark: listed apart in the source
Description: as §3

[14] = substrate: O=C(O)C1=CC(=O)[C@@H](O)[C@H](O)C1; assay: HPLC product assay, Michaelis-Menten; type: biochemical, Camellia sinensis; conditions: 3-DHS reduction to SA, co-substrate NADPH 1.5 mM, BTP-HCl pH 8.5, 30°C, 3 min; remark: listed apart in the source
Description: as §3

[15] = substrate: O=C(O)C1=C[C@@H](O)[C@@H](O)[C@H](O)C1; assay: HPLC product assay, Michaelis-Menten; type: biochemical, Camellia sinensis; conditions: SA oxidation to 3-DHS, co-substrate NADP+ 1.5 mM, BTP-HCl pH 8.5, 30°C, 3 min; remark: listed apart in the source
Description: as §3

CsDQD/SDHb (Camellia sinensis, UniProt A0A3G3BK08), sequence (A0A3G3BK08 entry or part of it): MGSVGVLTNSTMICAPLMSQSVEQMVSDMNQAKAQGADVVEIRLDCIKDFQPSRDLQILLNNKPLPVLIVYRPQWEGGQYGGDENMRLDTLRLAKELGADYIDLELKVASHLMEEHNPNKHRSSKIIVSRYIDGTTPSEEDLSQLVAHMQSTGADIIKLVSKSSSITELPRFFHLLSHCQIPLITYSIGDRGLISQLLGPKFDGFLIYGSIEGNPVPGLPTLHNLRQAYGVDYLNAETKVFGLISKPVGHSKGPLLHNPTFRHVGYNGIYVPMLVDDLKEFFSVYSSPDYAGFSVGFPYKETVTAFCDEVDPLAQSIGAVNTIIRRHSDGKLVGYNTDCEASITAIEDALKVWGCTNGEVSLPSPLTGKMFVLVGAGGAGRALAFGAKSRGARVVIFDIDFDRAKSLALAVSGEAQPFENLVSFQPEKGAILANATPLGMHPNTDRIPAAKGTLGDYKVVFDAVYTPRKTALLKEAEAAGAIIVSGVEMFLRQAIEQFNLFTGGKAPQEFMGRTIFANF
CsDQD/SDHb (Camellia sinensis, UniProt A0A3G3BK08, G296T/D398N/I399R/D400T, form not given), sequence (A0A3G3BK08 entry or part of it G296T/D398N/I399R/D400T, form open): as the sequence (A0A3G3BK08 entry or part of it) above, with G296T, D398N, I399R, D400T counted along it

O=C(O)C1=C[C@@H](O)[C@@H](O)[C@H](O)C1 [SA]
HPLC product quantification [1]: six times higher oxidation activity of SA than CsDQD/SDHb
HPLC product quantification ([2]; SA oxidation with NADP+): a lower enzymatic activity for NADP^+-dependent oxidation of SA
HPLC product quantification [3]: CsDQD/SDHb exhibited the lowest SA oxidation activity but had no 3-DHS reduction activity

O=C(O)C1=CC(=O)[C@@H](O)[C@H](O)C1 [3-DHS]
HPLC product quantification ([2]; 3-DHS reduction with NADPH): CsSDHa recombinant protein had an almost identical enzymatic activity for NADPH-dependent reduction of 3-DHS

B1: CsDQD/SDHa (Camellia sinensis) (protein)
chain: MELVAPVVAGCGVKMESEGMRKNSTLICVPLMADSVDQMLIYMNKAKLNGADLVEVRLDSLKSFNPPLDIETLIKRCPLPTLFTYRPKWEGGMYDGDESSRLEALQLAMELGADYIDVELQVIHEFNSSMHGKKPAKCKLIVSSHNYENTPSVEDLGNLVVKIQATGADIVKIATTALDITDAARVFQITVHSQVRGVPIIAMVMGERGLMARILCPKFGGYLTFGTLESGIVSAPGQPTMDDLVNLYNIRQIGPDTKVFGIIGKPVGHSKSPILYNEAFKKVGFNGVYLHLLVDDVANFLQTYSSTDFAGFSCTIPHKEAALKCCDEVDPVAKSIGAVNCIVRKSDGKFFGCNTDYVGAITAIEDALGGLQHVNGMVVSPLSGKLFVVIGAGGAGKALAYGAKAKGAKVVIANRTYERAKEIADTIGGDALSLADLSNFHPEDGMILANTTSIGMQPKVDETPVPKQALKSYALVFDAVYTPKITRLLREAEESGAKIVTGVEMFIGQAYEQFERFTGLPAPKELFGKIMAKY
Km [4]: 270.306 µM
kcat/Km [4]: 746 M⁻¹ s⁻¹
Km [5]: 138.031 µM
kcat/Km [5]: 845 M⁻¹ s⁻¹
Km [6]: 286.576 µM
kcat/Km [6]: 1410 M⁻¹ s⁻¹
Km [7]: 272.782 µM
kcat/Km [7]: 562 M⁻¹ s⁻¹

B2: CsDQD/SDHc (Camellia sinensis) (protein)
chain: MASGSFSFATSDVQTSSSGVRSGPTLLCTPLIGTTVDQMLIDMRKAKEIGADMVEIRLDCLREFNPRPDLQILIKQSPLPTLVTYRPIWESGQYEGDENKRQDALRLAMELGADYIDVELQVAQEFNNSISAKKPEKFKVIVSSQNFHSTPSAEAIGNLVARIQATGADIVKIVTTALDITDVARIFQITVHSQIPMIGIAMGERGLISRLLSPKFNGYLTYAALEAGAISAPGQPTVKDLLDLYNFRLIRPDTKVYGIIGKPVGHSKSPLLFNESFKKVGLNSVYVHLLVDDVKKFFSTYSSVDFAGFSCTIPHKEVALECMDEIDQIAKKIGAINNIVRRPDGTLKSYNTDYIGAISAIEDGLRESNGSSPATSSPLAGKLFVVLGAGGAGKSLAYGAQQKGARVVVANRTFERAKELAEKVGGKALTLEEVNDFHPEEGMILANTTSVGMKPNIDLTPISKEALKHYDLVFDAIYTPKDTRLLREARECGKIIVYGTEMLIRQGFEQYKNFTGLQAPEELFRELMSRHA
Km [8]: 267.244 µM
kcat/Km [8]: 193 M⁻¹ s⁻¹
Km [9]: 114.553 µM
kcat/Km [9]: 372 M⁻¹ s⁻¹
Km [10]: 330.933 µM
kcat/Km [10]: 507 M⁻¹ s⁻¹
Km [11]: 199.653 µM
kcat/Km [11]: 536 M⁻¹ s⁻¹

B3: CsDQD/SDHd (Camellia sinensis) (protein)
chain: MTLSSIPISEGGRRNPTMICAPVMAENVDQMLLMMRKAKELGADLVEVRIDYLKNFSPHHDLQILIKQCPLPTLITYRPTWEGGQFDGDETRRQAALRQAVELGADYIDIELKVADEFYKLIQGKKPEKVKIIVSSHNYENTPSAEEIGNLAARIQATGADIVKIATTAQDITDSARIFQLLAHSQVPTIGIVMGERGLMSRILCAKFGGFLTFGALESGIVSAPGQPTLKDLLELYNFRQIGPDTKVHGVIGNPIGHSKSPHLYNTAFRSAGFNGIYLPLLVDSVANFFNTYSSPDFVGYSYTIPHKEAGLKCCDEVDPIAEAIGAISCMVRKPSDGKLIGYNVDYLGAIGAIEEALGGSNGSSNGAVSPLASKLFVVIGAGGAGKALAYGGKEKGARVVVANRTYEKAKELASKVDGEAITLAELDDFHPEDGMILANTTSVGMKPKTDATPISKKALNRYSLVFGAIYTPKWTRLLQEAQDSGAKVVFGTEMFINQAFVQFERFTGMPAPKELIRETLAKNT
Km [12]: 248.798 µM
kcat/Km [12]: 197 M⁻¹ s⁻¹
Km [13]: 46.342 µM
kcat/Km [13]: 128 M⁻¹ s⁻¹
Km [14]: 465.971 µM
kcat/Km [14]: 99.5 M⁻¹ s⁻¹
Km [15]: 610.643 µM
kcat/Km [15]: 138 M⁻¹ s⁻¹
